The source of these data is the DeepSol protein solubility set.

This series in a line: soluble on expression in E. coli; label from the status in PepcDB or PDB records.
Take “MLDKIRFTVLLDRPFYQPGQTIQGHVVCEPHHPLEIDCVEGRLHGEIQYFQQLPPNHNRNGSPLPPSKTRVLIDEKAQLWKYQTVSEMLGLDVFYDENQNRHFSSESASASSSSLFTTAATFPIQIELPHFAPPSFYCPGSPVSIRFTLEIQLYNQGFKIASHEENLVVLNYESIKRQVTPKPVNFQKTFNFPKERSISLEMLLPTDVFTTTARLENCITICNRWKQSLKYVHLNIVRRISALNQNNEVIDTVKIDTTGVGLPSKTKIAVGETYSFRPTFNVPALPPNIHVNGLFKTEYSLKVTIGRAHNFVLASYEVPITIVTMDQSSRRSMQKEDILVDISASNNTLNNLPVDLLA”: the “soluble on expression in E. coli” value was “not soluble”.

Regarding “DADPTFDFIGYLETLPQTSGMYMGNASIIPRNYRKYLYHAYLAYMEANGYRNVLSLKMFGLGLPVMLKEYGLNYEKRHTKQGIQTNLTLKEESYGDWLPK”, the “soluble on expression in E. coli” value is recorded as “soluble”.

On to “MSRKKMGLLVMAMGTPYKEEDIERYYTHIRRGRKPEPEMLQDLKDRYEAIGGISPLAQITEQQAHNLEQHLNEIQDEITFKAYIGLKHIEPFIEDAVAEMHKDGITEAVSIVLAPHFSTFSVQSYNKRAKEEAEKLGGLTITSVESWYDEPKFVTYWVDRVKETYASMPEDERENAMLIVSAHSLPEKIKEFGDPYPDQLHESAKLIAEGAGVSEYAVGWQSEGNTPDPWLGPDVQDLTRDLFEQKGYQAFVYVPVGFVADHLEVLYDNDYECKVVTDDIGASYYRPEMPNAKPEFIDALATVVLKKLGR”, for which the “soluble on expression in E. coli” value is “soluble”.

In the case of “MGGEGPGSDDIVKKMAQLMMQGAVMLDKTCPADGLPLFKLKTGDVVCPVHGKVVIVASDEEARDVEVEEIIREVRYRAARNVMKGLEEDNVDTVSKWLGVLETAERILAIRRGSRQGQGSVRGEGRESK”, the “soluble on expression in E. coli” value was “not soluble”.

Take “MIRLIFLDIDKTLIPGYEPDPAKPIIEELKDMGFEIIFNSSKTRAEQEYYRKELEVETPFISENGSAIFIPKGYFPFDVKGKEVGNYIVIELGIRVEKIREELKKLENIYGLKYYGNSTKEEIEKFTGMPPELVPLAMEREYSETIFEWSRDGWEEVLVEGGFKVTMGSRFYTVHGNSDKGKAAKILLDFYKRLGQIESYAVGDSYNDFPMFEVVDKVFIVGSLKHKKAQNVSSIIDVLEVIKHHHHHH”: the “soluble on expression in E. coli” value is listed as “soluble”.

For “GPLGSLYAIVLYDFKAEKADELTTYVGENLFICAHHNCEWFIAKPIGRLGGPGLVPVGFVSIIDIATGYATGNDVIEDIKSVNLPTVQEWKSNIARYKASNISLGSVE”, the “soluble on expression in E. coli” value was “soluble”.

Take “MRKLTAMLVASSLALGAAGLAHANEAPKGPGSEHKMMMKEGREHRGMMGSDAMFKELNLTEAQKQQIKDIMKDSREKMHKAMQDDRRDMHSLVASDTFDAAKAQAQLDKADAAHKARMLSGLETKNKIYNVLTPEQKKQYNDSFEKRLTQPPKPDGKPVPAELEHHHHHH”: the “soluble on expression in E. coli” value was “soluble”.

On to “GTGRSRLLEDFRNNRFPNLQLRDLIGHIVEFSQDQHGSRFIQQKLERATPAERQIVFNEILQAAYQLMTDVFGNYVIQKFFEFGSLDQKLALATRIRGHVLPLALQMYGCRVIQKALESISSDQQSEMVKELDGHVLKCVKDQNGNHVVQKCIECVQPQSLQFIIDAFKGQVFVLSTHPYGCRVIQRILEHCTAEQTLPILEELHQHTEQLVQDQYGNYVIQHVLEHGRPEDKSKIVSEIRGKVLALSQHKFASNVVEKCVTHASRAERALLIDEVCCQNDGPHSALYTMMKDQYANYVVQKMIDMAEPAQRKIIMHKIRPHITTLRKYTYGKHILAKLEKYYLKNSPDLG”, for which the “soluble on expression in E. coli” value is on record as “soluble”.

“MKLTGFLKQNVRVRFAPSPTGHLHIGGLRTAFFNYLFAKKYGGDFILRIEDTDRTRFVDDAQDQIYSSLNFYNLLPDEGPREGGKFGPYEQSKRLEIYRNAAYRLIDSGHAYRCFCSENRLDLLRKTAEKRGEIPKYDRKCANLSSRDAVKMEQNGEKFVIRFKLDKQNVQFHDEVFGSVNQFIDESDPVLLKSDGFPTYHLANVIDDRKMEISHVIRGMEWLSSTGKHTILYKAFNWTPPKFVHLSLIMRSATKKLSKRDKDAFVSYYSEQLGALPEAVLNLMIRNGAGIRNFDAEHFYSLDEMIEQFDLSLLGRRNLLLDSDVLQKYSRMAFQKSDFKELYPRIIDILNKKSNYSTSREDIQKIVTFLKAKEENFGFLSSLSTEFSWFFTRPQSSQLLKESHPNVDLRNILNSLLEIEVFNSESLEYLAKNHQLNLAKAMGIVRISLIGSKKGPPISELVEFFGMTECHRRIRIMQELL”: the “soluble on expression in E. coli” value was “not soluble”.
